Test results from US20240158474A1 (SINO BIOLOGICAL, published 2024).

Assays:
Experiment in all cases: indirect ELISA, VLP coated at 2 µg/mL, antibody 10 ng/mL, HRP goat anti-rabbit Fc
HPV45 VLP protein = molecular target: T1, HPV45 VLP protein (human papillomavirus type 45; human …, UniProt P36741 1-478; P06416 474-499)
T1 construct: range 1-478;range 474-499; Complete VLP protein used as coating protein; also called HPV45L1(1-478L)+HPV33L1(474K-499K)
T1 sequence: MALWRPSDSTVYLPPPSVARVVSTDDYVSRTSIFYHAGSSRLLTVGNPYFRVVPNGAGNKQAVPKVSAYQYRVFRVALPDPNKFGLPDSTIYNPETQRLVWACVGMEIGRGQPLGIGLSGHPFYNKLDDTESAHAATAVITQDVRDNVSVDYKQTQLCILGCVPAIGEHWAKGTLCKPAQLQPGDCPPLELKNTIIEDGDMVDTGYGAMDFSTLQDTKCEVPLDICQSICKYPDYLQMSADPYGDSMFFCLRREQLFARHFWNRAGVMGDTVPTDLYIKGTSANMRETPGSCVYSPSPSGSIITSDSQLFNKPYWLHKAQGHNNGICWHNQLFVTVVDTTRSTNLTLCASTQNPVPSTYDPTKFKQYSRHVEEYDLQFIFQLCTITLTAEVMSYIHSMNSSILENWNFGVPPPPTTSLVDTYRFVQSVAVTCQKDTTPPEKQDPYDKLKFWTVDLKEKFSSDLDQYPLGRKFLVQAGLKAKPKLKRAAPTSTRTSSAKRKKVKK

HPV39 VLP protein = HPV39 VLP protein (human papillomavirus type 39; human …, UniProt P24838 1-469)
HPV35 VLP protein = molecular target: T2, HPV35 VLP protein (human papillomavirus type 35; human …, UniProt P27232 1-472; P06416 474-499)
T2 construct: range 1-472;range 474-499; Complete VLP protein used as coating protein; also called HPV35L1(1-472L)+HPV33L1(474K-499K)
T2 sequence: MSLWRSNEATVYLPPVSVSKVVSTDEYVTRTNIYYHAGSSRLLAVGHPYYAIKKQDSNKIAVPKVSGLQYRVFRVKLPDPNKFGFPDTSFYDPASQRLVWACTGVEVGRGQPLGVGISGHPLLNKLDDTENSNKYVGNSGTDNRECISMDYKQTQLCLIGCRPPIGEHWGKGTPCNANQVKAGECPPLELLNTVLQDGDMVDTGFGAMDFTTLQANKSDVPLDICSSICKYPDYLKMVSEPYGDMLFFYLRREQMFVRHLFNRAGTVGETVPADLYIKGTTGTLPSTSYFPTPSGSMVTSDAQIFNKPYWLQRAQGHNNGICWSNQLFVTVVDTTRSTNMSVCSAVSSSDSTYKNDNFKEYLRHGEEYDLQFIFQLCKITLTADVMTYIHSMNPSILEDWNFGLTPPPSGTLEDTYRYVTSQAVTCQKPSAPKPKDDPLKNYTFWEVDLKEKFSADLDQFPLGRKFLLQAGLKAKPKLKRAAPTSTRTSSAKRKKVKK

HPV16 VLP protein = molecular target: T3, HPV16 VLP protein (human papillomavirus type 16, UniProt P03101 1-474)
T3 construct: Complete VLP protein; no limits of the construct printed, whole entry named; also called HPV-16L1
T3 sequence: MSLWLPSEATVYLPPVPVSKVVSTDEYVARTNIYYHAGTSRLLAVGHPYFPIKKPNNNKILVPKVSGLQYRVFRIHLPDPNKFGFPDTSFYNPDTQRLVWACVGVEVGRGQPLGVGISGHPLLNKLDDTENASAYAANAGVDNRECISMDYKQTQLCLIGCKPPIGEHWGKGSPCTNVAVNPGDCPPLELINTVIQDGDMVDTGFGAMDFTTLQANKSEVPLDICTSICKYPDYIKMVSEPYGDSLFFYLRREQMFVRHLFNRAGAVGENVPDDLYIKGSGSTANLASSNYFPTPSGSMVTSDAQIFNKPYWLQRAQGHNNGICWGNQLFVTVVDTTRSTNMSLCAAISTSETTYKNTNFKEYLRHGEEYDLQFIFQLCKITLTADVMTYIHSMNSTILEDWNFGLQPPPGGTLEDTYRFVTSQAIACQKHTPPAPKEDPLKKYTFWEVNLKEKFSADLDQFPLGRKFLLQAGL

HPV33 VLP protein = molecular target: T4, HPV33 VLP protein (human papillomavirus type 33, UniProt P06416 1-499)
T4 construct: Complete VLP protein; no limits of the construct printed, whole entry named; also called HPV33L1
T4 sequence: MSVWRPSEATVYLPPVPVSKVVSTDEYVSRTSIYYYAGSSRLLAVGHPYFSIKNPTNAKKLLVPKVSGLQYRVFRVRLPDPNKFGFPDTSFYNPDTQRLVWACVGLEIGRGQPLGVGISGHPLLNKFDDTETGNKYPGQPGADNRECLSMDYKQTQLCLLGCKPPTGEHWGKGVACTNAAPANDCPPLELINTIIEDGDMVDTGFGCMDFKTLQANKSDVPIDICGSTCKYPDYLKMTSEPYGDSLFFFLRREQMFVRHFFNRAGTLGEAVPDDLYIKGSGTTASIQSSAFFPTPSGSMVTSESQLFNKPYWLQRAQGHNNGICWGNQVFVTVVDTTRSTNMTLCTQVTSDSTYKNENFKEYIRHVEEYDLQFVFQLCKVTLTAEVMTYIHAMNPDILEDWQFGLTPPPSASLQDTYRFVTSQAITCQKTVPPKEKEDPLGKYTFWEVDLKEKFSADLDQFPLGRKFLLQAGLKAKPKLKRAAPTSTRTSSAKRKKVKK

Chain of HPV39 VLP protein (P24838 whole entry): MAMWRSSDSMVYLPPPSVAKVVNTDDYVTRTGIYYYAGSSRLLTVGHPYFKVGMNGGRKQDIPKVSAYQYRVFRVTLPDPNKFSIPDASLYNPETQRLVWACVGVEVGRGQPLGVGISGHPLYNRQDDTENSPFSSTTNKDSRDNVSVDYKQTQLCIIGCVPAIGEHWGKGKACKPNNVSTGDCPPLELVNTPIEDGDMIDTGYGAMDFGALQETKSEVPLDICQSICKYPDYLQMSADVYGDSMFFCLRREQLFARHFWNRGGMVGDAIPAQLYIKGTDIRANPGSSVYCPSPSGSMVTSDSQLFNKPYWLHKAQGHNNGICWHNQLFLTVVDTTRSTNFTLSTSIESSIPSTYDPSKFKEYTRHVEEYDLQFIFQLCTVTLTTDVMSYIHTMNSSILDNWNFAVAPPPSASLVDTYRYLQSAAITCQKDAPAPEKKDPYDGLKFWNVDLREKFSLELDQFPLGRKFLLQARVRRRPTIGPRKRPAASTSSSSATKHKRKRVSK

B1: monoclonal antibody HPV6-R003 (antibody, V domains shown)
VH: QQQLEESGGGLVKPGGTLTLTCKASGIDLSNYYMCWVRQAPGKGLEWIGCIYTGSGRTYYASWAKGRFTISKASSTTVTLQMTSLTAADTATYFCARDYLGWRASNIWGPGTLVTVSS
VL: ELVMTQTPSSVSAAVGGTVTINCQASQSVYSNNLVWYQQKPGQPPKLLIYGASTLASGVPSRFKGSGSGTQFTLTISDVVCDDAATYYCGGYVSDSTDGTAFGGGTEVVVKG
notes: here built from variable plus constant region so that the signal peptides are left out; In the sandwich ELISA the same antibody is used as coating antibody and, labelled with horseradish peroxidase, as detection antibody; also called anti-HPV6 L1 protein antibody
OD450-blank (HPV45 VLP protein): 0.061 OD450 | OD450-blank (HPV39 VLP protein): 0.047 OD450 | OD450-blank (HPV35 VLP protein): 0.048 OD450 | OD450-blank (HPV16 VLP protein): 0.048 OD450 | OD450-blank (HPV33 VLP protein): 0.047 OD450
